# Entries after “also recorded” stand apart in the source; their conditions may differ.
# T1: recombinant human epiregulin (rhEreg) (Homo sapiens, UniProt O14944)
# T1 construct: recombinant human epiregulin containing the epidermal growth factor (EGF) domain; purchased R&D Biosciences 1195-EP
# T1 sequence (O14944 63-108 limits assumed): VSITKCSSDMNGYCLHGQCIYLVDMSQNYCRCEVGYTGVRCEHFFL
# T2: full-length epiregulin protein (Homo sapiens, UniProt O14944)
# T2 construct: Cultured HFF expressed endogenous full-length epiregulin; endogenous in cells; host or cells: human foreskin fibroblasts (HFF, ATCC #SCRC-1041)
# T2 sequence (O14944 63-169): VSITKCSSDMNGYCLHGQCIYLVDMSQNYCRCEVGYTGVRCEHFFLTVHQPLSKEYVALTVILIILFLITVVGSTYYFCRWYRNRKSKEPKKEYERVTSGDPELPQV
# T3: recombinant mouse epiregulin (rmEreg) (Mus musculus, UniProt Q61521)
# T3 sequence (Q61521 56-101 limits assumed): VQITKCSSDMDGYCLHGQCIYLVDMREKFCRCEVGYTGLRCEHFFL
# B1: hEreg NAb1: humanized epiregulin neutralizing antibody from hybridoma wells M3-5; VH SEQ ID NO: 1, VL SEQ ID NO: 6 (antibody, V domains shown)
# VH: HLQLQESGPGLVKSSETLSLTCSVSGGSISSSGYYWGWIRQPPGKGLEWIGSFYYSGNTYYNPSLKSRVTISADTSKSQYSLKLSSVTAADTAVYYCARHPFNWNDHYHYMDVWGNGTTVTVSS
# VL: DIQMTQSPSSLSASVGDSVTITCRASQSISNYLNWYQKKPGKAPKVLIYAASSLQSGVPSRFSGSGSGTDFTLTISSLQPEDFATYYCQQSYITSITFGQGTRLEIK
# What was measured:
# [1] = molecular target: T1, recombinant human epiregulin (rhEreg); assay: Inhibition of epiregulin-induced proliferation of human foreskin fibroblasts (CyQUANT); format: cell-based; conditions: rhEreg 100 ng/ml
# Protocol: Human foreskin fibroblasts (HFFs) were incubated with recombinant human epiregulin (rhEreg) in Dulbecco's Modified Eagle Medium (DMEM) containing 1% fetal bovine serum (FBS), n=3 per rhEreg concentration (left panel). HFF were incubated in media containing rhEreg 100 ng/ml along with commercially available rat anti-human/mouse epiregulin antibody (middle panel) or hEreg NAb1 (right panel), n=4 (middle panel), n=6 (right panel) per antibody concentration. Data points show mean and standard error, which were fit by interpolating from a sigmoidal standard curve. Proliferation was measured by green fluorescence protein (GFP) fluorescence at day 3 using CyQUANT Direct Cell Proliferation Assay (Invitrogen) on Synergy HTX plate reader (Biotek).
# To gauge their ability to inhibit epiregulin, whether the two unique antibodies produced by the hybridoma clones could inhibit recombinant epiregulin protein in vitro was tested. Characteristic of other EGFR ligands, recombinant human epiregulin (same as used for Alloy mouse immunization) induced proliferation of cultured human foreskin fibroblasts (HFF, ATCC #SCRC-1041) (FIG. 5, left panel). Maximal proliferation occurred at 100 ng/ml, so this concentration was used in subsequent inhibition experiments. […]
# [2] = molecular target: T2, full-length epiregulin protein; assay: HFF growth with increasing antibody in the absence of exogenous EGFR ligands; format: cell-based; conditions: increasing antibody concentrations, no exogenous EGFR ligands
# Protocol: HFF were incubated with increasing concentrations of hEreg NAb1 in the absence of exogenous epidermal growth factor receptor (EGFR) ligands.
# To gauge their ability to inhibit epiregulin, whether the two unique antibodies produced by the hybridoma clones could inhibit recombinant epiregulin protein in vitro was tested. Characteristic of other EGFR ligands, recombinant human epiregulin (same as used for Alloy mouse immunization) induced proliferation of cultured human foreskin fibroblasts (HFF, ATCC #SCRC-1041) (FIG. 5, left panel). Maximal proliferation occurred at 100 ng/ml, so this concentration was used in subsequent inhibition experiments. The ability of hEreg NAb1 and a commercially available rat anti-human/mouse neutralizing epiregulin antibody (R&D Systems MAB1068) to inhibit epiregulin-induced HFF proliferation was then compared. […] Cultured HFF expressed endogenous full-length epiregulin, but little to no other EGFR ligands. If HFF depend on the expression of epiregulin for growth and survival, inhibition of the endogenously produced protein should reduce their growth. […] Thus, hEreg NAb1 inhibits both the recombinant and full-length human epiregulin proteins.
# [3] = molecular target: T3, recombinant mouse epiregulin (rmEreg); assay: Inhibition of HFF proliferation induced by mouse epiregulin; format: cell-based; conditions: rmEreg 100 ng/ml
# Protocol: HFF were incubated with recombinant mouse epiregulin (rmEreg) for 3 days (left panel). HFF were incubated in media containing rmEreg 100 ng/ml along with rat anti-human/mouse epiregulin antibody (middle panel) or hEreg NAb1 (right panel), n=4 (middle panel), n=6 (right panel) per antibody concentration. Data points show mean and standard error, which were fit by interpolating from a sigmoidal standard curve.
# In order to validate the humanized antibody in mouse models of fibrosis, it was necessary to establish whether it cross-reacted with the mouse epiregulin homologue. To setup the assay, if recombinant mouse epiregulin could induce HFF proliferation was tested first, which it did similar to the human protein (FIG. 7, left panel). […] In contrast, hEreg NAb1 required >100-fold higher concentration to inhibit HFF proliferation by mouse epiregulin protein (FIG. 7, right panel). […] These findings are likely due to raising the humanized antibody in mice, which would negatively select out B cells that produce a self-reactive antibody.
# other EGFR ligands = assay: Rescue of HFF growth by other EGFR ligands in presence of hEreg NAb1; format: cell-based, human; conditions: 5 mg/ml hEreg NAb1; recombinant EGFR ligands 0.1, 1, 10 ng/ml; 3 days
# Protocol: HFF were incubated with 5 mg/ml hEreg NAb1 alone and recombinant EGFR ligands at 0.1 ng/ml. 1 ng/ml, and 10 ng/ml for 3 days prior to quantification.
# Next it was considered whether hEreg NAb1 could inhibit other EGFR ligands (commercially available from R&D Systems). HFF was incubated with 5 mg/ml of hEreg NAb1 alone, which as discussed above, inhibits epiregulin-driven growth of HFF. Whether addition of the other six EGFR ligands could rescue HFF growth through their activation of EGFR was tested. Compared to the hEreg NAb1 alone control, the lowest concentration tested of each EGFR ligand, 0.1 ng/ml, was sufficient to rescue HFF growth (FIG. 8).
# [4] = tested on: skin biopsies from two patients with sGvHD; assay: Sclerotic GvHD patient skin explants, fibrosis protein markers in supernatant by ELISA; format: cell-based, human; conditions: 2.5 mg/ml, 10 days
# Protocol: Paired skin biopsies from right arm and left abdomen of two patients with sGvHD were incubated with 2.5 mg/ml hEreg NAb1 or isotype control IgG1 antibody for 10 days. (FIG. 21A) Photos of patient fibrotic skin. (FIGS. 21B-21C) Media was changed every 48 hours and the level of fibrosis protein markers in the supernatant was quantified by ELISA (Abcam kits ab213831, ab210966, ab219046, ab187394, ab179886).
# It was then investigated whether hEreg NAb1 could reduce fibrosis similar to the epiregulin neutralizing rat antibody. To investigate whether hEreg NAb1 reduces fibrosis protein markers, hEreg NAb1 was tested on skin biopsies from two patients with the fibrotic form of graft-vs-host disease (sGvHD). Patient I was a person 3 years post stem cell transplant from matched unrelated donor for treatment of myelodysplastic syndrome not on any immunosuppressive therapies. Patient 2 was a person 3 years post stem cell transplant from matched unrelated donor for treatment of acute myelogenous leukemia not on any immunosuppressive therapies. Paired 4 mm skin biopsies from the most affected skin of the right arm of patient 1 and left abdomen of patient 2 were obtained (FIG. 21A). Skin explants were incubated with 2.5 mg/ml hEreg NAb1 or isotype control IgG1 antibody for 10 days.
# [5] = skin explants from either patient
molecule,measurement,setting,value
B1,inhibition of human epiregulin-induced HFF proliferation,[1]; 3 days,inhibited HFF proliferation in a concentration-dependent manner; also recorded: inhibits
same,"IC50, inhibition of epiregulin-induced HFF proliferation",[1]; day 3,0.1 to 0.3 µg/mL
same,HFF growth / inhibition of endogenous full-length epiregulin,[2],decreased growth was observed; also recorded: inhibits full-length epiregulin protein
same,cross-reactivity for mouse epiregulin protein,[3]; HFF proliferation,little cross-reactivity; also recorded: low cross-reactivity
same,fold higher concentration required to inhibit HFF proliferation by mouse epiregulin protein,[3]; HFF,> 100 fold
same,cross-reactivity with / neutralization of other EGFR ligands,other EGFR ligands,does not cross-react; also recorded: does not neutralize
same,fibrosis markers in sclerotic GvHD skin explants,[4]; vs isotype control IgG1,reduces fibrosis markers
same,MCP-1 in supernatant vs IgG1 isotype control,"[4]; patient 1, right arm",significantly reduced expression
same,TIMP1 in supernatant vs IgG1 isotype control,"[4]; patient 1, right arm",significantly reduced expression
same,TNC in supernatant vs IgG1 isotype control,"[4]; patient 1, right arm",significantly reduced expression
same,TNC in supernatant vs IgG1 isotype control,"[4]; patient 2, left abdomen",significant reduction
same,fibronectin (FN) expression,[4]; [5],did not reduce expression
same,pro-collagen I alpha 1/pro-collagen I N-terminal propeptide (PINP) expression,[4]; [5],did not reduce expression
